The values below come from patent publication US20130108641A1 (Sanofi, published 2013).

Test [1] addresses T1, cynomolgus monkey GITR-Fc (cynomolgus monkey).
T1 construct: extracellular domain; also called cGITR-FC; cGITR
The test is described as follows: SPR; KD on cGITR-Fc over KD on hGITR-Fc. As to the method:
(§1) The binding kinetics of several anti-GITR antibodies to recombinant human GITR (hGITR) and cynomolgus monkey GITR (cGITR) were determined by surface plasmon resonance assay using a BIAcore 2000 (BIAcore Inc., […].). Briefly, a CM5 BIAcore biosensor chip was docked into the instrument and activated with 250 μL of 1:1 NHS/EDC at room temperature. A rabbit anti-mouse Fc IgG1 mAb (BIAcore #BR-1005-14) (13.5 μg/mL in 0.05M acetate buffer, pH 5) was immobilized on the activated chips in Flow cell 1. The immobilization was carried out at a flow rate of 5 μL/min. The chip was then blocked by injection of 55 μL of ethanolamine-HCl, pH 8.5, followed by five washes with 50 mM NaOH, 1M NaCl. To measure the binding of anti-GITR mabs to the human GITR protein or cyno GITR protein, antibodies were used at 2 μg/mL in BIAcore running buffer (HBS-EP). Antigens (human GITR or cyno GITR) were injected from 3 to 1000 nM. Following completion of the injection phase, dissociation was monitored in a BIAcore running buffer at the same flow rate for 360 sec. The surface was regenerated between injections using 30 μL of 50 mM NaOH-1 M NaCl. Individual sensorgrams were analyzed using […].

The target in test [2] is T2, cynomolgus monkey GITR on PBMCs (cynomolgus monkey).
T2 construct: whole, on cells; also called cynoGITR-expressing PBMCs
The test is described as follows: FACS, Alexa488-labeled antibody on PHA-stimulated cynomolgus monkey PBMCs. The method, then:
(§2) Specifically, human or cynomolgus monkey peripheral blood mononuclear cells were isloated and diluted to 2×10^6/ml in RPMI-1640 medium containing 10% FBS. The cells were then stimulated with 5 ug/ml phytohaemagglutinin (PHA) for 72 hours in 6 well plates. […] The cells were then washed 2 times with FACS stain buffer (Becton Dickinson) and then co-stained with 50 ul of CD4-APC for 20 minutes in the dark at 4° C. The cells were then washed again 2 times with FACS stain buffer before being resuspended in 150 μL of FACS stain buffer (Becton Dickinson) and analyzed using a FACS Calibur instrument. from which binding curves were generated. Equilibrium dissociation constants (KD) for each antibody were determined from the binding curves.

Test [3] concerns the target T3, human GITR expressed on cells (human, UniProt Q9Y5U5 26-241).
T3 construct: whole, on cells; Used for HEK293 transfectants and for PHA-stimulated human PBMCs; also called hGITR; cell surface hGITR
T3 sequence (looked up): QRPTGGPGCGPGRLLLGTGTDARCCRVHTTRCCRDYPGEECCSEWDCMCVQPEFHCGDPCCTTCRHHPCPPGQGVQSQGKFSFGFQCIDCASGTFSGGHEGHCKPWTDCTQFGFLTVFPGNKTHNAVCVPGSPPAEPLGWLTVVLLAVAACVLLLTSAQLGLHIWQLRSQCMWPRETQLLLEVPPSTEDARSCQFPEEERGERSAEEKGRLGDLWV
In words: Meso Scale assay, Sulfo-conjugated antibody on coated HEK293-Trex-hGITR cells. The method, then:
The binding kinetics of anti-GITR antibodies to hGITR expressed on the surface of HEK293 cells were determined by Meso Scale assay. HEK293-Trex-hGITR cells (#2404) were coated at 25000 cells/well on a 96-well High Bind plate (MSD L15XB-3) for 2 hours at room temperature. Wells were washed 2 times with 150 μl/well of PBS and blocked with 150 μl/well of blocking solution for 30 min at room temperature. Following two washes with 150 μl/well of PBS, 25 μL/well of Sulfo-conjugated antibodies were added in 2-fold serial dilutions starting at 100 μg/ml up to 12 dilutions in assay diluent and incubated for 45 min at room temperature followed by two washes with PBS. The antibody binding was evaluated by adding 150 μl/well 1× Read buffer T without surfactant and read using the Mesoscale instrument.

Test [4] addresses T4, human GITR-Fc fusion protein (human, UniProt Q9Y5U5 26-162).
T4 construct: extracellular domain; also called hGITR-Fc; recombinant human GITR-Fc; not shown: Fc part
T4 sequence (looked up): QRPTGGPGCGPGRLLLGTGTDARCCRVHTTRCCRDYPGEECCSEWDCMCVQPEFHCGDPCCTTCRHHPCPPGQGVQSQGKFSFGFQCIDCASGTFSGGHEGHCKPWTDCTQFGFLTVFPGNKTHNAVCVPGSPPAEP
The test is described as follows: SPR (BIAcore 2000), mAb captured on anti-mouse Fc, antigen injected. The method, then: as §1

In test [5] the target is T1, cynomolgus monkey GITR-Fc. The test is described as above. The method, then: as §1
Test [6] deals with T3, human GITR expressed on cells. The test is described as follows: FACS, Alexa488-labeled antibody on PHA-stimulated human PBMCs. The method, then:
as §2

Test [7] deals with T4, human GITR-Fc fusion protein. In words: competition ELISA, GITRL coated, GITR-Fc 0.25 µg/mL pre-incubated with antibody. As to the method: The ability of anti-GITR antibodies to inhibit the binding of human GITRL to hGITR was assessed using a competition ELISA. Ninety-six well plates were coated with GITR-Ligand protein at 0.5 μg/well at 4° C., overnight. Wells were washed with washing buffer (PBS pH 7.4+0.05 Tween 20) and blocked with 200 μL of blocking buffer (PBS pH 7.4+0.05% Tween 20+1% BSA) for 1 hour at room temperature. Wells were then washed two times with washing buffer and exposed to 100 μL of pre-incubated mixtures of GITR-Fc at 0.25 μg/mL plus anti-GITR antibody in 2-fold serial dilutions starting at 10 μg/ml up to 12 dilutions for 1 hour at room temperature with agitation. Plates were washed four times with washing buffer and GITR-Ligand-bound recombinant human GITR-Fc was detected with the use of peroxidase-conjugated goat anti-human IgG-Fc (Sigma), followed by incubation with the TMB substrate (Interchim)
All antibodies generated using the methods disclosed herein were able to antagonize the binding of GITRL to GITR more potently than the prior art MAB689 antibody.

For test [8], the target named is T3, human GITR expressed on cells. The test is described as follows: cell-based or functional assay.

B1: anti-GITR antibody clone 2155 (murine) (antibody, V domains shown)
VH: EVKLVESGGGLVKPGGSLKLSCGASGFTISSYAMSWVRQSPEKRLEWVAIISTGGSTYYPDSVRGRFTISRDNARNSLYLQMSSLRSEDTAMYYCARVGGYYDSMDHWGQGTSVTVSS
VL: not shown
notes: Murine hybridoma antibody
For the molecule B1, the “Ratio cKD/hKD” value in test [1] was found to be 2.3. The Kd in test [2] is 0.353 nM; in test [3], 0.35 nM; in test [4], 0.99 nM; in test [5], 2.27 nM; in test [6] it was 0.476 nM. For the same molecule, the koff in test [4] was determined as 0.000508 s⁻¹; in test [5], 0.00123 s⁻¹. In test [7], this molecule showed an IC50 of 0.96 nM. In test [8], the “IC50 of dose-dependent inhibition of NFkB signal transduction (luciferase reporter)” value came out at 0.15 nM.

B2: anti-GITR antibody clone 1718 (antibody, V domains shown)
VH: QVQVQQSGPELVKPGASVRISCKASDYTFTNYYIHWVRQRPGQGLEWLGWIYPGKGYTNYNEKFKGKATLTADKSSSTAYMQFSSLTSEDSAVYFCASGYGNYYFPYWGQGTLVTVSA
VL: IQMTQSSSYLSVSLGGRVTITCKASDHIKNWLAWYQQKPGNVPRLLMSAATSLETGFPSRFSGSGSGKDFTLTITSLQTEDVATYYCQQYWSTPWTFGGGTKLEIK
notes: Murine hybridoma antibody; also called 1718-GITR2; 1718 GITR-2
On to B2, for which the “Ratio cKD/hKD” value in test [1] turned out to be 1.3. Moreover, the Kd turned out to be 0.857 nM in test [3], 2.57 nM in test [4], 3.35 nM in test [5] and 4.13 nM in test [6]. The results for the dissociation rate constant (koff) in test [4] and in test [5] were 0.00038 s⁻¹ and 0.000345 s⁻¹, respectively. In test [7], this molecule displayed an IC50 of 1.02 nM.
